Assay results reported in US20210032351A1 (XDCEXPLORER SHANGHAI, published 2021).
“And” between values parts separate entries of the source, which are not always exact repeats. Identical values can stand only once. Like-named read-outs stand apart in the source and are kept apart here. Ends that are not written are not given here. * marks the point of attachment. Biotin = O=C1N[C@H]2[C@H](CS[C@H]2CCCCC(=O)*)N1

Tests used:
pep05 = biological target: T1, pep05 (cysteine pairing not given here); assay: peptide dot matrix ELISA
T1 peptide: KGNYVVTDHGSCVRACK(Biotin)

pep06 = biological target: T2, pep06 (cysteine pairing not given here); assay: peptide dot matrix ELISA
T2 peptide: GNYVVTDHGSCVRACGK(Biotin)

pep07 = biological target: T3, pep07 (cysteine pairing not given here); assay: peptide dot matrix ELISA
T3 peptide: NYVVTDHGSCVRACGAK(Biotin)

pep13 = biological target: T4, pep13 (cysteine pairing not given here); assay: peptide dot matrix ELISA
T4 peptide: HGSCVRACGADSYEMEK(Biotin)

pep14 = biological target: T5, pep14 (cysteine pairing not given here); assay: peptide dot matrix ELISA
T5 peptide: GSCVRACGADSYEMEEK(Biotin)

pep15 = biological target: T6, pep15 (cysteine pairing not given here); assay: peptide dot matrix ELISA
T6 peptide: SCVRACGADSYEMEEDK(Biotin)

pep20 = biological target: T7, pep20 (cysteine pairing not given here); assay: peptide dot matrix ELISA
T7 peptide: CGADSYEMEEDGVRKCK(Biotin)

pep21 = biological target: T8, pep21; assay: peptide dot matrix ELISA
T8 peptide: GADSYEMEEDGVRKCKK(Biotin)

pep04 [1] = biological target: T9, pep04; assay: peptide dot matrix ELISA
T9 sequence (peptide, C-terminal K(Biotin)): KKGNYVVTDHGSCVRAK

pep19 = biological target: T10, pep19; assay: peptide dot matrix ELISA
T10 sequence (peptide, C-terminal K(Biotin)): ACGADSYEMEEDGVRKK

[2] = biological target: human wild-type EGFR protein on the cell surface (human) (UniProt P00533); assay: FACS on CHOk1-EGFR cells
[3] = biological target: human wild-type EGFR protein on the cell surface (human) (UniProt P00533); assay: FACS on A431 tumor cells
[4] = biological target: human EGFRvIII-hFc protein (human) (UniProt P00533); assay: ELISA, EGFRvIII-hFc coated
[5] = biological target: human EGFRvIII-hFc protein (human) (UniProt P00533); assay: ELISA, EGFRvIII-hFc coated; remark: listed apart in the source
[6] = biological target: human EGFRvIII protein on the cell surface (human) (UniProt P00533); assay: FACS on CHOk1-EGFRvIII cells
[7] = biological target: human EGFRvIII protein on the cell surface (human) (UniProt P00533); assay: FACS on U87MG-EGFRvIII cells
[8] = biological target: human wild-type EGFR protein on the cell surface (human) (UniProt P00533); assay: FACS on normal human primary hepatocytes
[9] = biological target: T11, human EGFR protein (wild-type), on cells (human, UniProt P00533 25-1210); assay: FACS on CHOK-EGFR cells
T11 construct: whole, on cells; transfected on CHO-K1 cells; endogenous on the human cell lines; the cell is named under assay; also called wild-type EGFR; hEGFR

[10] = biological target: T12, human EGFRvIII-hFc protein (human, UniProt P00533 25-645); assay: ELISA, coated EGFRvIII-hFc
T12 construct: extracellular domain; made in HEK293 cells, purified on protein A; also called immunogen A; hFc-tagged EGFRvIII protein; not shown: human IgG Fc fragment (hFc) of the pCpC vector
Method: The plate is incubated for 2 hours at 37° C., and then washed 3 times with the plate washing solution [PBS+0.01% (v/v) Tween20]. The plate is added with an HRP (horseradish peroxidase) labeled secondary antibody (purchased from Sigma), incubated at 37° C. for 2 hours, and then washed 3 times with the plate washing solution [PBS+0.01% (v/v) Tween20]. The plate is added with 100 μl of TMB substrate/well, incubated for 30 minutes at room temperature, and then added with 100 μl of stopping solution (1.0N HCl)/well. A450 nm value is read using an ELISA plate reader (SpectraMax 384plus, purchased from Molecular Device), and the results are shown in FIG. 11 and table 19.

[11] = biological target: T13, human EGFRvIII protein, full length, on transfected cells (human, UniProt P00533 25-1210); assay: FACS on CHOK-EGFRvIII cells
T13 construct: whole, on cells; stably transfected CHO-K1, U87MG and HEK293(F) cells; also called hEGFRvIII; mutant EGFRvIII protein

[12] = biological target: T13, human EGFRvIII protein, full length, on …; assay: FACS on U87MG-EGFRvIII cells, Alexa 488 secondary antibody, mean fluorescence intensity
Method: The preparation of U87MG-EGFRvIII required for FACS detection is as described in the preparation of the immunogen B in example 1. Normal human primary hepatocytes are purchased from BioreclamationIVT, and A431 tumor cells are purchased from ATCC. […] The cells are washed twice with the HBSS buffer and are counted, and then the cells are diluted with the HBSS buffer to 2×10⁶ cells/ml, added with 1% goat serum blocking solution, with the percentage being the mass percentage, and incubated on ice for 30 minutes, and then centrifugally washed twice with the HBSS buffer. […] The plate is centrifugally washed twice with the FACS buffer, added with 100 μL/well of a 1:1000 diluted fluorescence (Alexa 488) labeled secondary antibody (purchased from Invitrogen), and incubated on ice for 1 hour. […] The cells are resuspended in 100 μL of the FACS buffer, and the results are detected and analyzed by FACS (FACS Calibur, purchased from BD). Data analysis is performed by using the software (CellQuest) to obtain the mean fluorescence intensity (MFI) of the cells. Data is further analyzed by using the software (GraphPad Prism5) to perform data fitting and calculate EC50.

[13] = biological target: T12, human EGFRvIII-hFc protein; assay: ELISA, plate coated with human EGFRvIII-hFc, HRP secondary antibody, absorbance at 450 nm
Method: The purified immunogen A (EGFRvIII-hFc) obtained in example 1 (for the preparation method, see step (I) in example 1) is diluted with PBS to a final concentration of 1.0 μg/mL, and then added to a 96-well ELISA plate at 100 μl/well. The plate is sealed with a plastic film and incubated at 4° C. overnight. The next day, the plate is washed twice with a plate washing solution [PBS+0.01% (v/v) Tween20], and added with a blocking solution [PBS+0.01% (v/v) Tween20+1% (w/w) BSA] for blocking 2 hours at room temperature. […] The plate is incubated for 2 hours at 37° C., and then washed 3 times with the plate washing solution [PBS+0.01% (v/v) Tween20]. The plate is added with an HRP (horseradish peroxidase) labeled secondary antibody (purchased from Sigma), incubated at 37° C. for 2 hours, and then washed 3 times with the plate washing solution [PBS+0.01% (v/v) Tween20]. The plate is added with 100 μl of TMB substrate/well, incubated for 30 minutes at room temperature, and then added with 100 μl of stopping solution (1.0N HCl)/well. A450 nm value is read using an ELISA plate reader (SpectraMax 384plus, purchased from Molecular Device), and the results are shown in FIG. 11 and table 19.

pep01 = biological target: T14, pep01; assay: peptide dot matrix ELISA
T14 peptide: LEEKKGNYVVTDHGSCK(Biotin)

pep04 [14] = biological target: T15, pep04; assay: peptide dot matrix ELISA
T15 peptide: KKGNYVVTDHGSCVRAK(Biotin)

pep08 = biological target: T16, pep08 (cysteine pairing not given here); assay: peptide dot matrix ELISA
T16 peptide: YVVTDHGSCVRACGADK(Biotin)

pep09 = biological target: T17, pep09 (cysteine pairing not given here); assay: peptide dot matrix ELISA
T17 peptide: VVTDHGSCVRACGADSK(Biotin)

pep10 = biological target: T18, pep10 (cysteine pairing not given here); assay: peptide dot matrix ELISA
T18 peptide: VTDHGSCVRACGADSYK(Biotin)

pep11 = biological target: T19, pep11 (cysteine pairing not given here); assay: peptide dot matrix ELISA
T19 peptide: TDHGSCVRACGADSYEK(Biotin)

pep16 = biological target: T20, pep16 (cysteine pairing not given here); assay: peptide dot matrix ELISA
T20 peptide: CVRACGADSYEMEEDGK(Biotin)

pep17 = biological target: T21, pep17; assay: peptide dot matrix ELISA
T21 peptide: VRACGADSYEMEEDGVK(Biotin)

pep18 = biological target: T22, pep18; assay: peptide dot matrix ELISA
T22 peptide: RACGADSYEMEEDGVRK(Biotin)

pep25 = biological target: T23, pep25 (cysteine pairing not given here); assay: peptide dot matrix ELISA
T23 peptide: YEMEEDGVRKCKKCEGK(Biotin)

pep26 = biological target: T24, pep26 (cysteine pairing not given here); assay: peptide dot matrix ELISA
T24 peptide: EMEEDGVRKCKKCEGPK(Biotin)

pep28 = biological target: T25, pep28 (cysteine pairing not given here); assay: peptide dot matrix ELISA
T25 peptide: EEDGVRKCKKCEGPCRK(Biotin)

pep30 = biological target: T26, pep30 (cysteine pairing not given here); assay: peptide dot matrix ELISA
T26 peptide: DGVRKCKKCEGPCRKVK(Biotin)

pep31 = biological target: T27, pep31 (cysteine pairing not given here); assay: peptide dot matrix ELISA
T27 peptide: GVRKCKKCEGPCRKVCK(Biotin)

pep33 = biological target: T28, pep33 (cysteine pairing not given here); assay: peptide dot matrix ELISA
T28 peptide: RKCKKCEGPCRKVCNGK(Biotin)

pep34 = biological target: T29, pep34 (cysteine pairing not given here); assay: peptide dot matrix ELISA
T29 peptide: KCKKCEGPCRKVCNGIK(Biotin)

pep35 = biological target: T30, pep35 (cysteine pairing not given here); assay: peptide dot matrix ELISA
T30 peptide: CKKCEGPCRKVCNGIGK(Biotin)

Molecule: hIgG (antibody)
- ELISA signal (pep05): 0.05 and 0.06
- ELISA signal (pep06): 0.07 and 0.05
- ELISA signal (pep07): 0.05
- ELISA signal (pep13): 0.06
- ELISA signal (pep14): 0.07
- ELISA signal (pep15): 0.05 and 0.06
- ELISA signal (pep20): 0.12 and 0.1
- ELISA signal (pep21): 0.06
- ELISA signal (pep04 [1]): 0.05 and 0.06
- ELISA signal (pep19): 0.05
- Maximum mean fluorescence intensity [2]: 144 MFI
- MFI [3]: 388 MFI
- Maximum OD450 value [4]: 0.17 OD450
- Maximum OD450 value [5]: 0.1 OD450
- Maximum mean fluorescence intensity [6]: 133 MFI
- Maximum mean fluorescence intensity [7]: 0 MFI
- MFI [8]: 219 MFI

B1: c75G7C6-3 (antibody, human IgG1, V domains shown)
VH: EVQLQQSGPELVKPGASVKIPCKASGYTFTDYNMDWVKQSHGKSLEWIGDINPNNGDTIYNQKFKGKATLTVDKSSSTAYMELRSLTSEDTAVYYCARGDYEGYYPVYYAMDYWGQGTSVTVSS
VL: ENVLTQSPAIMSASPGEKVTMTCRASSSVSSSYLHWYQQKSGASPKLWIFSTSNLAAGVPARFSGSGSGTSYSLTVSSVEAEDAATYYCQQYSGYPLTFGAGTKLELK
notes: chimeric, human IgG1 / kappa; DG of heavy chain CDR3 mutated to EG; also called DG/EG mutant
- fold decrease in binding ability compared to the wild-type chimeric antibody c75G7C6 [9]: 3 fold
- fold decrease in binding ability compared to the wild-type chimeric antibody c75G7C6 [10]: 22 fold
- fold decrease in binding ability compared to the wild-type chimeric antibody c75G7C6 [11]: 2.5 fold

B2: Chimeric antibody 63A10 (antibody, human IgG1, V domains shown)
VH: QVQLQQSGAELARPGASVKMSCKASGYTFISFTMHWVKQRPGQGLEWIGYINPNSGYTKYNQKFKDKATLTAGQSSSTAYMQLSSLTSEDSAVYYCTRGGGRGFAYWGQGTLVTVSA
VL: DILMTQSPSSMSVSLGDTVTITCHASQDINSNIGWLQQKPGKSFKALIYHGTNLEDGVPSRFSGSGSGADYSLTISSLESEDFADYYCVQYAQFPFTFGSGTKLEIK
notes: also called c63A10A7
- EC50 (read off the curve) [12]: ~2 nM
- EC50 (read off the curve) [13]: ~0.03 nM

B3: Chimeric antibody 63A10 (antibody, V domains shown)
VH: B2 VH
VL: B2 VL
notes: also called c63A10A7
- ELISA signal (pep01): 0.05
- ELISA signal (pep04 [14]): 0.06
- ELISA signal (pep08): 0.05
- ELISA signal (pep09): 0.05
- ELISA signal (pep10): 0.05
- ELISA signal (pep11): 0.05
- ELISA signal (pep16): 0.05
- ELISA signal (pep17): 0.05
- ELISA signal (pep18): 0.05
- ELISA signal (pep25): 0.06
- ELISA signal (pep26): 0.33
- ELISA signal (pep28): 0.06
- ELISA signal (pep30): 0.06
- ELISA signal (pep31): 0.06
- ELISA signal (pep33): 0.07
- ELISA signal (pep34): 0.07
- ELISA signal (pep35): 0.07
